Data as given in US20240400720A1 (NOVIMMUNE S A, published 2024).
Positions count from the first letter of the chain named. Each block holds one binder with its values, some of them ahead of it.

What was measured:
human CD19 [1] = molecular target: T1, human CD19 (human, UniProt P15391 20-291, limits assumed); assay: affinity maturation of B7
T1 construct: also called hCD19
T1 sequence (looked up): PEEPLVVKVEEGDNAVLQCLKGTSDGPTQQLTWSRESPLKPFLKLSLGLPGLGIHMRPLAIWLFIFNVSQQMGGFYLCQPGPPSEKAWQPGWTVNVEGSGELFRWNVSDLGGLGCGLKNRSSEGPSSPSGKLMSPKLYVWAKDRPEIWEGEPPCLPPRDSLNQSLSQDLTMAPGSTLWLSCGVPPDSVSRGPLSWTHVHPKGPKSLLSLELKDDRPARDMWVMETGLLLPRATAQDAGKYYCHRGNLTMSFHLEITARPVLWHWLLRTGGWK

human CD19 on Raji cells = molecular target: T2, human CD19 on Raji cells (human, UniProt P15391 20-556); assay: FACS on Raji cells (CD19-positive), dose-response
T2 construct: whole, on cells; also called native form of hCD19
T2 sequence (looked up): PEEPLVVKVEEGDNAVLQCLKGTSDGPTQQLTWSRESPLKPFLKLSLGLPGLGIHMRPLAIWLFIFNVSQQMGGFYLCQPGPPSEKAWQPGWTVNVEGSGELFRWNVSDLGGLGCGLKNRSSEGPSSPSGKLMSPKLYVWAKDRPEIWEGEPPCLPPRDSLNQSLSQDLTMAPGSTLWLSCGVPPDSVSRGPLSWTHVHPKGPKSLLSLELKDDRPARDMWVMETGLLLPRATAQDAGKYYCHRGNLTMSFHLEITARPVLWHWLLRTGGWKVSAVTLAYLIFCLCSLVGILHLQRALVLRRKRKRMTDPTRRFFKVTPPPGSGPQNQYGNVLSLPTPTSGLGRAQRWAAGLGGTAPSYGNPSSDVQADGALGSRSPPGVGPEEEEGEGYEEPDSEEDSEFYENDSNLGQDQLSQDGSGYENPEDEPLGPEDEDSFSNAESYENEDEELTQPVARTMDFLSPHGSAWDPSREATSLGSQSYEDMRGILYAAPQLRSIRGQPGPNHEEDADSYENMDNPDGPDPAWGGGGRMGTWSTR

human CD19 [2] = molecular target: T1, human CD19; assay: parental antibody, weaker than D11
[3] = molecular target: T3, human CD47 on the cell surface (human, UniProt Q08722 19-323); assay: adsorption on erythrocytes: antibody in human whole blood, 30 min at 37 °C, antibody left in plasma measured by ELISA
T3 construct: whole, on cells; also called huCD47; native CD47
Protocol: (§1) With more than 5 billion cells per ml of blood, and 25,000 CD47 molecules per cell, erythrocytes represent potentially the major antigen sink for CD47-binding antibodies. To assess the effect of erythrocyte adsorption, CD47 antibodies were incubated with whole blood. Following incubation, the fraction of CD47 antibodies remaining in the plasma was determined by ELISA.
(§2) In brief, 200 μl of whole blood containing an anti-coagulant was mixed with 20 μl of antibody ([…] in PBS) and incubated for 30 minutes at 37° C. with shaking. The plasma was then separated from the cells by centrifugation, and the concentration of unbound antibody determined by ELISA.

[4] = molecular target: T3, human CD47 on the cell surface; assay: CD47-SIRPα inhibition assay on Raji cells (competition with soluble SIRPα)
[5] = molecular target: T3, human CD47 on the cell surface; assay: adsorption on erythrocytes: antibody 10 µg/ml in human whole blood, 30 min at 37 °C, antibody left in plasma measured by ELISA
Protocol: as §1, §2

human CD47 [6] = molecular target: T4, human CD47 (human, UniProt Q08722 19-141, limits assumed); assay: screening of Examples 3 to 6
T4 construct: also called hCD47

[7] = molecular target: T5, cynomolgus monkey CD47 on CD4+ T cells (cynomolgus monkey, UniProt A0A5F8AK49 19-323 (rhesus entry)); assay: flow cytometry on CD4+ T cells in cynomolgus PBMC
T5 construct: whole, on cells; also called cynomolgus CD47

[8] = molecular target: T3, human CD47 on the cell surface; assay: CD47-SIRPα competitive binding assay: His-tagged soluble human SIRPα (200 ng/ml) on hCD47-transfected CHO cells, antibody 3.3 pM-330 nM; blocked ligand SIRPα
human CD47 [9] = molecular target: T4, human CD47; assay: affinity ranking told with the hemagglutination test
Protocol: CD47 MAbs were tested for their ability to induce homotypic clustering of erythrocytes (hemagglutination). 10 microliters of human whole blood was diluted in 40 microliters of antibody solution in PBS at different concentrations (range: 0.003 microg/ml to 50 microg/ml final Mab concentration) in flat-bottom 96 well plates. The blood-antibody mix was incubated O/N at 37° C. without shaking. At the end of the incubation, the plates were agitated manually, tilted at about […], and let to rest for about 10 minutes.

B1: D11 antibody (antibody, human IgG1, lambda, V domains shown)
VH: not shown
VL: NFMLTQPHSVSESPGKTVTISCTRSSGSIDDKFVQWYQQRPGSSPTTVIYYDNIRPSGVPDRFSGSIDSSSNSASLTISGLKTEDEADYYCQSYDASLYGWVFGGGTKLTVLG
notes: anti-CD19, IgG, lambda; also called L7B7_D11
binding result (human CD19 [1]): binds
binding result (human CD19 on Raji cells): binds

B3: C2 antibody (antibody, human IgG1, lambda, V domains shown)
VH: not shown
VL: B1 VL with D30E, F33Y, T47I, I54E, S93T, A96Q
notes: anti-CD19, IgG, lambda; also called L7B7_C2; L7B7_c2
EC50 (read off the curve) (human CD19 on Raji cells): ~0.4 nM
binding result [3]: no binding (tested: 10 µg/ml)

B4: CD47xCD19 bispecific antibody with CD47 arm Ke8G11 (bispecific antibody)
heavy: not shown
light 1: DIQMTQSPSSLSASVGDRVTITCRASQSIGRYLNWYQQKPGKAPKLLIYAASSLQSGVPSRFSGSGSGTDFTLTISSLQPEDFATYYCQQMHPRGPKTFGQGTKVEIKRTVAAPSVFIFPPSDEQLKSGTASVVCLLNNFYPREAKVQWKVDNALQSGNSQESVTEQDSKDSTYSLSSTLTLSKADYEKHKVYACEVTHQGLSSPVTKSFNRGEC
light 2: NFMLTQPHSVSESPGKTVTISCTRSSGSIEDKYVQWYQQRPGSSPTIVIYYDNERPSGVPDRFSGSIDSSSNSASLTISGLKTEDEADYYCQTYDQSLYGWVFGGGTKLTVLGQPKAAPSVTLFPPSSEELQANKATLVCLISDFYPGAVTVAWKADSSPVKAGVETTTPSKQSNNKYAASSYLSLTPEQWKSHRSYSCQVTHEGSTVEKTVAPTECS
notes: also called Ke8G11 CD47Xcd19 BsAb; κλ body
IC50 [4]: 0.066 nM

B7: Ke8A3 antibody (antibody, human IgG1, kappa, V domains shown)
VH: not shown
VL: DIQMTQSPSSLSASVGDRVTITCRVSQSISKYLNWYQQKPGKAPKLLIYAASSLQSGVPSRFSGSGSGTDFTLTISSLQPEDFATYYCQQRHPRGPSTFGQGTKVEIKR
notes: IgG
binding result (human CD47 [9]): binds
binding result [8]: binds

Second part, the binder after the results:

binding result (human CD19 [2]): binds
binding result (human CD19 on Raji cells): binds
B2: B7 antibody (antibody, human IgG1, lambda, V domains shown)
VH: not shown
VL: B1 VL with D30A, F33Y, Y51E, I54Q, A96S
notes: anti-CD19, IgG, lambda (IGLV6-57); parental clone; also called 1B7

binding result [5]: binds
B5: 5A3M3xC2 (bispecific antibody, human IgG1, kappa, lambda)
common heavy chain: not shown
kappa light chain (5A3-M3, anti-CD47): not shown
lambda light chain (C2, anti-CD19): B4 light 2
notes: m69 has the same CD47 arm but no named CD19 arm; also called bispecific antibody 5A3-M3×C2

binding result (human CD47 [6]): binds
binding result [7]: no binding (tested: 0.005 mg/ml)
binding result [8]: binds
B6: Ke8 antibody (antibody, human IgG1, kappa, V domains shown)
VH: not shown
VL: B7 VL with V25A, K31S, R91F, P93K, G95R, S97Q
notes: IgG, kappa (IGVK1-39)
